Here are results for 21 molecules from US20210107971A1 (UCB, published 2021).

Experiment [1] has as its target T1, monoclonal 6470 rabbit Fab.
T1 construct: Fab heavy chain entry carries a C-terminal His tag
As to the kind of experiment: competitive SPR (Biacore 3000): 1 µM peptide with 50 nM Fab; competitor immobilised human alpha synuclein monomer. (In general: In SPR one partner is held on a chip, and binding of the other changes the refractive index at the surface.)
Description: (§1) Recombinant human alpha synuclein monomer and pre-formed alpha synuclein fibrils were immobilized on a CM5 chip using a Biacore 3000 instrument (GE Healthcare). Following activation of the carboxymethyl dextran surface by injection of 100 μl of a fresh 1:1 (v/v) mixture of 50 mM N-hydroxysuccimide and 200 mM 1-ethyl-3-(3-dimethylaminopropyl)-carbodiimide at a flow rate of 10 μl/min HBS-EP (GE Healthcare) as running buffer, coupling was achieved by injecting 100 μl of monomer and fibrils, at 5 μM in 10 mM acetate pH 5.0, over separate flow cells. A reference flow cell was activated in the same manner and then all flow cell surfaces were deactivated with a 50 μl pulse of 1 M ethanolamine HCl pH 8.5.
(§2) Peptide solutions were prepared in running buffer at 100 μM and a peptide blank control prepared as a 1 in 100 dilution of DMSO in running buffer. […] Sensograms were recorded for each sample by injecting 30 μl of the mixture at 10 μl/min and recording a report point 5 seconds before the end of the injection. […] Control cycles were alternated with peptide cycles.

Experiment [2] addresses T1, monoclonal 6470 rabbit Fab. Nature of the experiment: competitive SPR (Biacore 3000): 1 µM peptide with 50 nM Fab; competitor immobilised human alpha synuclein fibrils.
Description: as §1, §2
Experiment [3] deals with T1, monoclonal 6470 rabbit Fab. Nature of the experiment: competitive SPR: 6470 Fab pre-incubated with peptide, injected over immobilised human alpha synuclein monomer and fibrils; %inhibition.
T1 sequence (V domain, as listed by the source): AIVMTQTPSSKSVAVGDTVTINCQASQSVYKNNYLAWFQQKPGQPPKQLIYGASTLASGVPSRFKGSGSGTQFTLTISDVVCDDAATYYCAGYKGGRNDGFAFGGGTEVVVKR
Description: as §1, §2
The target of experiment [4] is T2, purified recombinant human alpha synuclein fibrils (human, UniProt P37840 1-140). Nature of the experiment: cell-based or functional assay.
Experiment [5] addresses T3, recombinant full-length human alpha synuclein monomer (human, UniProt P37840 1-140). Nature of the experiment: SPR, Biacore T200, as in Example 3; full-length IgG4P injected.
Description: (§3) Interaction kinetics were determined by using surface plasmon resonance technology on a Biacore T200 instrument. Three different ligands including recombinant full-length human alpha synuclein monomer, purified recombinant human alpha synuclein fibrils, and purified recombinant mouse alpha synuclein fibrils, prepared as described herein, were each immobilized on three different flow cells of a CM5 chip surface using amine-coupling chemistry. The three ligands were prepared in 10 mM NaAc, pH 3.5, and immobilized onto separate flow cell surfaces to reach an immobilization level of about 30 response units (RU) for alpha synuclein monomer, about 40 RU for human alpha synuclein fibrils, and about 300 RU for mouse alpha synuclein fibrils respectively, at a flow rate of 10 μI/min. The buffer HBS-EP+(GE healthcare Bio-Sciences AB) was used as running buffer for both ligand immobilization and kinetics assay. […] The surface was regenerated by one injection of 50 mM HCl for 90 s at 10 μI/min, and another injection of 50 mM HCl for 60 s at 10 μI/min. The data were analyzed using the Biacore T200 evaluation software (version 3.0) using the bivalent analyte model with assumed no bulk contribution (RI=0) and global Rmax for IgG format, and 1:1 model with flexible bulk contribution (local RI) and global Rmax.
For experiment [6], the target named is T2, purified recombinant human alpha …. The description is as above.
Description: as §3
Experiment [7] has the same target. As to the kind of experiment: affinity for human alpha synuclein fibrils, IgG4P; method not given; Table 6 humanization screen, separate from Table 7B.
In experiment [8] the target is T3, recombinant full-length human alpha …. Nature of the experiment: SPR, Biacore T200, as in Example 3; full-length IgG4P injected; human monomer.
Description: as §3
The target of experiment [9] is T2, purified recombinant human alpha …. As to the kind of experiment: SPR, Biacore T200, as in Example 3; full-length IgG4P injected; human fibril.
The target in experiment [10] is purified recombinant human alpha synuclein fibrils (human, UniProt P37840 1-140). As to the kind of experiment: affinity for human alpha synuclein fibrils, IgG4P; method not given.
Experiment [11] has as its target T2, purified recombinant human alpha …. The description is as above. The source holds these as a separate data set.
For experiment [12] the target is unchanged. As to the kind of experiment: cell-based or functional assay. This is another data set of the same source.
In experiment [13] the target is T3, recombinant full-length human alpha …. As to the kind of experiment: kinetics table of Example 9 (method not named there; same values as Table 7B, SPR).
Experiment [14] concerns the target T2, purified recombinant human alpha …. The description is as above.

B1: AS123-132 (peptide)
peptide: Ac-EAYEMPSEEG-NH2
notes: Synthetic peptide of human alpha synuclein
On to B1, for which the “% inhibition” value was determined as 37% in [1] and 54% in experiment [2].

B2: AS117-126 (peptide)
peptide: Ac-PVDPDNEAYE-NH2
As to B2, the binding result in [3] was “no binding”.

B3: AS127-136 (peptide)
peptide: Ac-MPSEEGYQDY-NH2
notes: as for B1
Turning to B3, the binding result in experiment [3] was “no binding”.

B4: AS109-118 (peptide)
peptide: Ac-QEGILEDMPV-NH2
notes: as for B1
With B4, the binding result in experiment [3] is reported as “no binding”.

B5: AS113-122 (peptide)
peptide: Ac-LEDMPVDPDN-NH2
notes: as for B1
Turning to B5, the binding result in experiment [3] was “no binding”.

B6: AS121-130 (peptide)
peptide: Ac-DNEAYEMPSE-NH2
notes: as for B1
B6: the “% inhibition” value in experiment [1] came to 20%; in [2] it was 27%.

B7: 129-138 (peptide, UniProt P37840 129-138, looked up)
peptide: Ac-SEEGYQDYEP-NH2
notes: synthetic 10-mer peptide
For the molecule B7, the binding result in experiment [3] is “no binding”.

B8: AS104-113 (peptide)
peptide: Ac-EEGAPQEGIL-NH2
notes: as for B1
Take B8: the binding result in [3] is on record as “no binding”.

B9: 6470gL3gH23 IgG4P (antibody, V domains shown)
VH: EVQLLESGGGLVQPGGSLRLSCAVSGIDLSSHDMYWVRQAPGKGLEYIGAIYASGSTYYASWAKGRFTISRDNSKNTVYLQMNSLRAEDTAVYYCARIHYGNSGGLWGQGTLVTVSS
VL: DIQMTQSPSSLSASVGDRVTITCQASQSVYKNNYLAWFQQKPGKAPKQLIYGASTLASGVPSRFSGSGSGTQFTLTISSLQPEDFATYYCAGYKGGRNDGFAFGGGTKVEIKR
notes: Full-length humanized human IgG4P; also called VR6470 gL3
With B9, in experiment [4], the “IC50, inhibition of alpha synuclein aggregation induced by fibrils in HEK293F cells expressing alpha synuclein (% pSer129+ cells)” value (from here on “IC50, inhibition … (% pSer129+ cells)”) was less than 5 nM. For the same molecule, the koff was found to be 0.0242 s⁻¹ in [5] and 0.000142 s⁻¹ in [6]. For the same molecule, the kon came to 1.2e+06 M⁻¹ s⁻¹ in experiment [5] and 855000 M⁻¹ s⁻¹ in [6]. The Kd was determined as 0.148 nM in experiment [7], 20.1 nM in experiment [8] and 0.166 nM in experiment [9].

B10: VR6470 gL3; gH23-S56N-N102H (antibody, human IgG4 S228P, kappa, V domains shown)
VH: EVQLLESGGGLVQPGGSLRLSCAVSGIDLSSHDMYWVRQAPGKGLEYIGAIYASGNTYYASWAKGRFTISRDNSKNTVYLQMNSLRAEDTAVYYCARIHYGHSGGLWGQGTLVTVSS
VL: DIQMTQSPSSLSASVGDRVTITCQASQSVYKNNYLAWFQQKPGKAPKQLIYGASTLASGVPSRFSGSGSGTQFTLTISSLQPEDFATYYCAGYKGGRNDGFAFGGGTKVEIKR
notes: Full-length humanized human IgG4P
Turning to B10, the “IC50, inhibition … (% pSer129+ cells)” value in experiment [4] was less than 5 nM. For the same molecule, in [5], the Kd was found to be 4.62 nM, the koff is 0.00445 s⁻¹ and the kon is 966000 M⁻¹ s⁻¹. Also, in experiment [6], the Kd was determined as 0.068 nM, the koff worked out at 7.08e-05 s⁻¹ and the kon was 1.04e+06 M⁻¹ s⁻¹.

B11: 6470gL3gH25 (antibody, V domains shown)
VH: EVQLLESGGGLVQPGGSLRLSCAVSGIDLSSHDMYWVRQAPGKGLEWIGAIYASGSTYYASWAKGRFTISKDSSKNTVYLQMNSLRAEDTAVYYCARIHYGNSGGLWGQGTLVTVSS
VL: DIQMTQSPSSLSASVGDRVTITCQASQSVYKNNYLAWFQQKPGKAPKQLIYGASTLASGVPSRFSGSGSGTQFTLTISSLQPEDFATYYCAGYKGGRNDGFAFGGGTKVEIKR
With B11, the Kd in [10] was 76 nM.

B12: VR6470 gL3-N33R; gH36-S56N-N102H (antibody, human IgG4 S228P, kappa, V domains shown)
VH: EVQLLESGGGLVQPGGSLRLSCAVSGIDLSSHDMYWVRQAPGKGLEYIGAIYASGNTYYASWAKGRFTISRDSSKNTLYLQMNSLRAEDTAVYYCARIHYGHSGGLWGQGTLVTVSS
VL: DIQMTQSPSSLSASVGDRVTITCQASQSVYKNRYLAWFQQKPGKAPKQLIYGASTLASGVPSRFSGSGSGTQFTLTISSLQPEDFATYYCAGYKGGRNDGFAFGGGTKVEIKR
notes: as for B10
Turning to B12, in [4], the “IC50, inhibition … (% pSer129+ cells)” value was less than 5 nM. Also, in [5], the equilibrium dissociation constant (Kd) came out at 1.31 nM, the koff turned out to be 0.00648 s⁻¹ and the kon stood at 4.97e+06 M⁻¹ s⁻¹. Moreover, in experiment [6], the dissociation constant (Kd) came to 0.053 nM, the koff amounted to 0.000126 s⁻¹ and the kon is 2.39e+06 M⁻¹ s⁻¹.

B13: 6470gL8gH36 (antibody, V domains shown)
VH: EVQLLESGGGLVQPGGSLRLSCAVSGIDLSSHDMYWVRQAPGKGLEYIGAIYASGSTYYASWAKGRFTISRDSSKNTLYLQMNSLRAEDTAVYYCARIHYGNSGGLWGQGTLVTVSS
VL: DIQMTQSPSSLSASVGDRVTITCQASQSVYKNNYLAWFQQKPGKAPKQLIYGASTLASGVPSRFSGSGSGTDFTLTISSLQPEDFATYYCAGYKGGRNDGFAFGGGTKVEIKR
For the molecule B13, in experiment [11], the Kd was found to be 0.198 nM.

B14: VR6470 gL3-N33R; gH23-S56N-N102H (antibody, human IgG4 S228P, kappa, V domains shown)
VH: EVQLLESGGGLVQPGGSLRLSCAVSGIDLSSHDMYWVRQAPGKGLEYIGAIYASGNTYYASWAKGRFTISRDNSKNTVYLQMNSLRAEDTAVYYCARIHYGHSGGLWGQGTLVTVSS
VL: DIQMTQSPSSLSASVGDRVTITCQASQSVYKNRYLAWFQQKPGKAPKQLIYGASTLASGVPSRFSGSGSGTQFTLTISSLQPEDFATYYCAGYKGGRNDGFAFGGGTKVEIKR
notes: as for B10
As for B14, the “IC50, inhibition … (% pSer129+ cells)” value in [4] is less than 5 nM. For the same molecule, in experiment [5], the Kd is 1.71 nM, the koff turned out to be 0.00594 s⁻¹ and the kon was found to be 3.48e+06 M⁻¹ s⁻¹. Moreover, in experiment [6], the dissociation constant Kd was 0.056 nM, the koff was determined as 0.000116 s⁻¹ and the kon came out at 2.07e+06 M⁻¹ s⁻¹.

B15: 6470gL3gH36 IgG4P (antibody, V domains shown)
VH: EVQLLESGGGLVQPGGSLRLSCAVSGIDLSSHDMYWVRQAPGKGLEYIGAIYASGSTYYASWAKGRFTISRDSSKNTLYLQMNSLRAEDTAVYYCARIHYGNSGGLWGQGTLVTVSS
VL: DIQMTQSPSSLSASVGDRVTITCQASQSVYKNNYLAWFQQKPGKAPKQLIYGASTLASGVPSRFSGSGSGTQFTLTISSLQPEDFATYYCAGYKGGRNDGFAFGGGTKVEIKR
notes: Full-length humanized human IgG4P; also called VR6470 gL3; VR6470
Consider B15, for which the “IC50, inhibition … (% pSer129+ cells)” value in [4] is less than 5 nM. Also, the “IC50, inhibition of alpha synuclein aggregation induced by fibrils on mouse primary neurons (pSer129 alpha synuclein signal)” value in experiment [4] is less than 4 nM. For the same molecule, the Kd in experiment [5] turned out to be 15.1 nM; in [6], 0.298 nM; in [13], 15.1 nM; in experiment [14], 0.298 nM; in [11], 0.166 nM. Besides, the off-rate (koff) amounted to 0.0174 s⁻¹ in experiment [5], 0.000317 s⁻¹ in [6], 0.0174 s⁻¹ in experiment [13] and 0.000317 s⁻¹ in experiment [14]. The kon in experiment [5] was 1.15e+06 M⁻¹ s⁻¹; in experiment [6] it was 1.07e+06 M⁻¹ s⁻¹; in experiment [13], 1.15e+06 M⁻¹ s⁻¹; in experiment [14], 1.07e+06 M⁻¹ s⁻¹. Further, the “IC50 (nM), HEK cell-based aggregation assay” value in experiment [12] was less than 5 nM.

B16: 6470gL8gH23 (antibody, V domains shown)
VH: EVQLLESGGGLVQPGGSLRLSCAVSGIDLSSHDMYWVRQAPGKGLEYIGAIYASGSTYYASWAKGRFTISRDNSKNTVYLQMNSLRAEDTAVYYCARIHYGNSGGLWGQGTLVTVSS
VL: DIQMTQSPSSLSASVGDRVTITCQASQSVYKNNYLAWFQQKPGKAPKQLIYGASTLASGVPSRFSGSGSGTDFTLTISSLQPEDFATYYCAGYKGGRNDGFAFGGGTKVEIKR
For B16, in experiment [11], the Kd was found to be 0.246 nM.

B17: VR6470 gL3; gH36-S56N-N102H (antibody, human IgG4 S228P, kappa, V domains shown)
VH: EVQLLESGGGLVQPGGSLRLSCAVSGIDLSSHDMYWVRQAPGKGLEYIGAIYASGNTYYASWAKGRFTISRDSSKNTLYLQMNSLRAEDTAVYYCARIHYGHSGGLWGQGTLVTVSS
VL: DIQMTQSPSSLSASVGDRVTITCQASQSVYKNNYLAWFQQKPGKAPKQLIYGASTLASGVPSRFSGSGSGTQFTLTISSLQPEDFATYYCAGYKGGRNDGFAFGGGTKVEIKR
notes: as for B10
Regarding B17, in experiment [4], the “IC50, inhibition … (% pSer129+ cells)” value was less than 5 nM. In experiment [5], the Kd was 4.1 nM, the koff came out at 0.00488 s⁻¹ and the on-rate constant (kon) is 1.19e+06 M⁻¹ s⁻¹. In [6], the Kd was determined as 0.059 nM, the koff was determined as 7.44e-05 s⁻¹ and the kon worked out at 1.25e+06 M⁻¹ s⁻¹.

B18: 131-140 (peptide, UniProt P37840 131-140, looked up)
peptide: Ac-EGYQDYEPEA-OH
notes: synthetic 10-mer peptide
Take B18: the binding result in [3] is given as “no binding”.

B19: AS125-134 (peptide)
peptide: Ac-YEMPSEEGYQ-NH2
notes: as for B1
Consider B19, for which the “% inhibition” value in [1] worked out at 34%; in experiment [2], 52%.

B20: AS119-128 (peptide)
peptide: Ac-DPDNEAYEMP-NH2
notes: as for B1
Take B20: in experiment [3], the binding result is recorded as “no binding”.

B21: AS111-120 (peptide)
peptide: Ac-GILEDMPVDP-NH2
notes: as for B1
For B21, the binding result in experiment [3] is on record as “no binding”.

Usually % inhibition stands for the drop in the measured response relative to a control, in per cent. Low readings indicate a response near the control, high ones a response far below the control. In general, koff refers to a measure of how fast the partners let go of each other. Usually kon stands for a measure of how fast the partners come together. One may read the Kd as the concentration at which binding is half-saturated.
